Where no end group is shown, it is not given here.

For assay [1], the target named is T1, Anti-PSMA Fab (SEQ ID NOs: 19, 20).
T1 construct: Biotinylated and captured on neutravidin coated plates in the phage ELISA; also called 006 PSMA Fab
Description: phage binding ELISA; biotinylated PSMA Fab captured on neutravidin plate, clonal phage supernatant, anti-M13 HRP detection. A general note: In an ELISA, binding on a coated surface is turned into a signal by an enzyme label.
Description: (§1) Clonal phage were harvested as crude supernatants and screened via standard ELISAs. […] Prior to the addition of clonal phage. wells were incubated with blocking buffer and PSMA antigen or blocking buffer alone. Without washing or aspirating, clonal phage supernatants were then added to the wells and incubated for a short time. Wells were then washed followed by detection of bound phage using a horse radish conjugated anti-M13 antibody.

Assay [2] shares this target. Nature of the assay: phage binding ELISA on captured PSMA Fab; wells pre-incubated with PSMA antigen as competitor.
Description: as §1
Assay [3] deals with T2, Anti-PSMA Fab (SEQ ID NOs: 19, 20).
T2 construct: In the phage ELISA the Fab was biotinylated and captured on neutravidin coated plates; also called 006 PSMA Fab
Description: phage ELISA; biotinylated PSMA Fab on neutravidin plate pre-incubated with PSMA antigen (competitor), anti-M13 HRP detection.
Description: as §1

For assay [4] the target is unchanged. Nature of the assay: phage ELISA; biotinylated PSMA Fab on neutravidin plate, clonal phage supernatant, anti-M13 HRP detection.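 Further: wells preincubated with PSMA antigen in blocking buffer or with blocking buffer only before clonal phage were added for a short incubation, then bound phage detected.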
Description: as §1

B1: Phage-1970 (peptide)
peptide: EFKWCTPSWMCAHL
notes: tested as crude clonal phage supernatant
Take B1: in assay [1], the “Anti-PSMA Fab (SEQ ID NOs: 19, 20) signal” value worked out at 1.9. Moreover, the “Anti-PSMA Fab signal in the presence of PSMA” value in assay [2] turned out to be 0.128.

As for NFHLCTPQWMCTGF (cysteine pairing not given here; also: displayed as fusion to phage pIII, Peptide-180 library clone) [Phage-1997], the “Phage binding ELISA, Anti-PSMA Fab signal in the presence of PSMA” value (shortened to “Phage binding ELISA … of PSMA”) in assay [3] was 0.0973. In addition, the “Phage binding ELISA, Anti-PSMA Fab signal” value in assay [4] amounted to 1.86.

B2: Phage-1971 (peptide)
peptide: VMNWCTPVWMCQGF
notes: as for B1
Take B2: the “Anti-PSMA Fab (SEQ ID NOs: 19, 20) signal” value in assay [1] turned out to be 1.9. Moreover, in assay [2], the “Anti-PSMA Fab signal in the presence of PSMA” value came to 0.115.

In the case of LEKLCIPSWMCEGM (cysteine pairing not given here; also: displayed as fusion to phage pIII, Peptide-180 library clone) [Phage-2002], the “Phage binding ELISA … of PSMA” value in assay [3] was 0.0942. In assay [4], the “Phage binding ELISA, Anti-PSMA Fab signal” value stood at 1.85.

B3: Phage-1975 (peptide)
peptide: FDNWCKPSWMCAGL
notes: as for B1
Turning to B3, in assay [1], the “Anti-PSMA Fab (SEQ ID NOs: 19, 20) signal” value turned out to be 1.89. For the same molecule, in assay [2], the “Anti-PSMA Fab signal in the presence of PSMA” value came to 0.0863.

Regarding IPKWCTPAWMCESM (cysteine pairing not given here; also: displayed as fusion to phage pIII, Peptide-180 library clone) [Phage-1999], the “Phage binding ELISA … of PSMA” value in assay [3] was determined as 0.0609. For the same molecule, the “Phage binding ELISA, Anti-PSMA Fab signal” value in assay [4] was found to be 1.86.

B4: Phage-1973 (peptide)
peptide: FDKWCIPEWMCAVL
notes: as for B1
Take B4: the “Anti-PSMA Fab (SEQ ID NOs: 19, 20) signal” value in assay [1] worked out at 1.9. Also, in assay [2], the “Anti-PSMA Fab signal in the presence of PSMA” value was 0.0682.

B5: Phage-2005 (peptide)
peptide: VTKWCIPEWMCEYI
modifications: cysteine pairing not given here; also: fused to phage pIII, pIII sequence and linker not given here
notes: Peptide-180 library clone
As for B5, in assay [3], the “Phage binding ELISA … of PSMA” value worked out at 0.0658. Moreover, the “Phage binding ELISA, Anti-PSMA Fab signal” value in assay [4] was 1.85.

B6: Phage-1977 (peptide)
peptide: MAQWCTPAWMCSGF
notes: as for B1
B6: in assay [1], the “Anti-PSMA Fab (SEQ ID NOs: 19, 20) signal” value came to 1.89. The “Anti-PSMA Fab signal in the presence of PSMA” value in assay [2] worked out at 0.0721.

B7: Phage-1972 (peptide)
peptide: PWHWCIPEWMCAEY
notes: as for B1
For the molecule B7, the “Anti-PSMA Fab (SEQ ID NOs: 19, 20) signal” value in assay [1] is 1.9. The “Anti-PSMA Fab signal in the presence of PSMA” value in assay [2] is 0.083.

B8: Phage-1979 (peptide)
peptide: LPKWCTPEWMCIGF
notes: as for B1
For the molecule B8, the “Anti-PSMA Fab (SEQ ID NOs: 19, 20) signal” value in assay [1] came out at 1.89. In addition, the “Anti-PSMA Fab signal in the presence of PSMA” value in assay [2] is 0.113.

B9: Phage-2009 (peptide)
peptide: EFVKCVPAWMCEWT
modifications: cysteine pairing not given here; also: fused to phage pIII, pIII sequence and linker not given here
notes: Peptide-180 library clone
Turning to B9, in assay [3], the “Phage binding ELISA … of PSMA” value amounted to 0.0768. The “Phage binding ELISA, Anti-PSMA Fab signal” value in assay [4] stood at 1.84.

In the case of IDNWCRPLWMCHGF (cysteine pairing not given here; also: displayed as fusion to phage pIII, Peptide-180 library clone) [Phage-2004], the “Phage binding ELISA … of PSMA” value in assay [3] is 0.0907. For the same molecule, the “Phage binding ELISA, Anti-PSMA Fab signal” value in assay [4] was 1.85.

B10: Phage-1980 (peptide)
peptide: LDKWCIPPWMCYSI
notes: as for B1
Consider B10, for which, in assay [1], the “Anti-PSMA Fab (SEQ ID NOs: 19, 20) signal” value turned out to be 1.89. For the same molecule, the “Anti-PSMA Fab signal in the presence of PSMA” value in assay [2] came to 0.0602.

For the molecule EVKWCTPAWMCEGF (cysteine pairing not given here; also: displayed as fusion to phage pIII, Peptide-180 library clone) [Phage-2001], the “Phage binding ELISA … of PSMA” value in assay [3] is 0.0605. In assay [4], the “Phage binding ELISA, Anti-PSMA Fab signal” value turned out to be 1.85.

Take IDKWCIPAWMCVSN (cysteine pairing not given here; also: displayed as fusion to phage pIII, Peptide-180 library clone) [Phage-1998]: the “Phage binding ELISA … of PSMA” value in assay [3] amounted to 0.0815. Besides, the “Phage binding ELISA, Anti-PSMA Fab signal” value in assay [4] was 1.86.

B11: Phage-2008 (peptide)
peptide: HPKWCTPAWMCVML
modifications: cysteine pairing not given here; also: fused to phage pIII, pIII sequence and linker not given here
notes: Peptide-180 library clone
For B11, in assay [3], the “Phage binding ELISA … of PSMA” value turned out to be 0.0691. For the same molecule, the “Phage binding ELISA, Anti-PSMA Fab signal” value in assay [4] was found to be 1.85.

B12: Phage-1976 (peptide)
peptide: TMHWCIPQWMCETG
notes: as for B1
In the case of B12, the “Anti-PSMA Fab (SEQ ID NOs: 19, 20) signal” value in assay [1] was 1.89. For the same molecule, the “Anti-PSMA Fab signal in the presence of PSMA” value in assay [2] amounted to 0.25.

B13: Phage-1969 (peptide)
peptide: VEKWCKPTWMCEMV
notes: as for B1
With B13, in assay [1], the “Anti-PSMA Fab (SEQ ID NOs: 19, 20) signal” value was 1.9. The “Anti-PSMA Fab signal in the presence of PSMA” value in assay [2] is 0.0976.

Regarding FEKWCVPIWMCRDS (cysteine pairing not given here; also: displayed as fusion to phage pIII, Peptide-180 library clone) [Phage-2003], in assay [3], the “Phage binding ELISA … of PSMA” value was determined as 0.161. In addition, the “Phage binding ELISA, Anti-PSMA Fab signal” value in assay [4] was 1.85.

B14: Phage-1978 (peptide)
peptide: SERWCIPTWMCQET
notes: as for B1
As for B14, the “Anti-PSMA Fab (SEQ ID NOs: 19, 20) signal” value in assay [1] came to 1.89. Further, the “Anti-PSMA Fab signal in the presence of PSMA” value in assay [2] came to 0.0819.

B15: Phage-2007 (peptide)
peptide: QDMWCIPPWMCWAQ
modifications: cysteine pairing not given here; also: fused to phage pIII, pIII sequence and linker not given here
notes: Peptide-180 library clone
Consider B15, for which the “Phage binding ELISA … of PSMA” value in assay [3] amounted to 0.126. For the same molecule, the “Phage binding ELISA, Anti-PSMA Fab signal” value in assay [4] was found to be 1.85.

B16: Phage-1968 (peptide)
peptide: YIKWCTPSWMCEAS
notes: as for B1
Consider B16, for which, in assay [1], the “Anti-PSMA Fab (SEQ ID NOs: 19, 20) signal” value came to 1.9. In assay [2], the “Anti-PSMA Fab signal in the presence of PSMA” value was found to be 0.113.

Consider HEMWCRPAWMCDGF (cysteine pairing not given here; also: displayed as fusion to phage pIII, Peptide-180 library clone) [Phage-2000], for which, in assay [3], the “Phage binding ELISA … of PSMA” value amounted to 0.0635. For the same molecule, in assay [4], the “Phage binding ELISA, Anti-PSMA Fab signal” value came out at 1.85.

B17: Phage-1974 (peptide)
peptide: LVKWCIPEWMCEVL
notes: as for B1
On to B17, for which the “Anti-PSMA Fab (SEQ ID NOs: 19, 20) signal” value in assay [1] was 1.9. Further, in assay [2], the “Anti-PSMA Fab signal in the presence of PSMA” value is 0.0751.

B18: Phage-2006 (peptide)
peptide: LPHWCTPLWMCEGF
modifications: cysteine pairing not given here; also: fused to phage pIII, pIII sequence and linker not given here
notes: Peptide-180 library clone
In the case of B18, the “Phage binding ELISA … of PSMA” value in assay [3] was 0.0658. Also, the “Phage binding ELISA, Anti-PSMA Fab signal” value in assay [4] was found to be 1.85.
